Source: patent publication US7052908B2, “Androgen receptor coactivators” (University of Rochester, priority 1998, dated 2006)

How the values were obtained:
wtAR = biological target: T1, wtAR (Homo sapiens, UniProt P10275); test: AR transactivation, transient transfection with MMTV-CAT reporter in DU145 cells
T1 sequence (P10275 1-920): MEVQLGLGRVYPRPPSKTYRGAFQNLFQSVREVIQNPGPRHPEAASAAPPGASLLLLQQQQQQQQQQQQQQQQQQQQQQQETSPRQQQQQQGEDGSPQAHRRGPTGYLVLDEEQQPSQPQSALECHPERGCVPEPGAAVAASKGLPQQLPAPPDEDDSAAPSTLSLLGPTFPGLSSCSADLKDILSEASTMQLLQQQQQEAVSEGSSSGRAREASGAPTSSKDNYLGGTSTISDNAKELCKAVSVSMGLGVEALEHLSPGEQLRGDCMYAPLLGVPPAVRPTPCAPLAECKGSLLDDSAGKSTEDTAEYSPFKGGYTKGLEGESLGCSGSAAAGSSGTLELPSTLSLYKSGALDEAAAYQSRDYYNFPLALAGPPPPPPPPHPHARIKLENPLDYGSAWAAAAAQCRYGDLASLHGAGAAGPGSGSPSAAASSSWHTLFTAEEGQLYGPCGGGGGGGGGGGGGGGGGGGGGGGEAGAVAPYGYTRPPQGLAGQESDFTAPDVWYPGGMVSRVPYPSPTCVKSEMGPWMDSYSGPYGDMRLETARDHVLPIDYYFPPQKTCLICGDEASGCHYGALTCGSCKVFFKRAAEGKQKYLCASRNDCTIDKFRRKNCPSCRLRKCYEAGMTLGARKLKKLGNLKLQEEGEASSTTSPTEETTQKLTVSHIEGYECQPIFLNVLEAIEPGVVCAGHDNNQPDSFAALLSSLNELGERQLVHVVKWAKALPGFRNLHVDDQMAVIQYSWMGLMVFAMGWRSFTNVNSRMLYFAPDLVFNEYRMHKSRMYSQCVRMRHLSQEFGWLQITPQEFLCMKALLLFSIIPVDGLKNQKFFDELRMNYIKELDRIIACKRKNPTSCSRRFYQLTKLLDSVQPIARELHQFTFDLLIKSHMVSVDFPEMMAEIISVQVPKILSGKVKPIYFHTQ

AR = biological target: T2, AR (Homo sapiens, UniProt P10275); test: AR transcriptional activity (MMTV-CAT) in PC3 cells
T2 sequence (P10275 1-920): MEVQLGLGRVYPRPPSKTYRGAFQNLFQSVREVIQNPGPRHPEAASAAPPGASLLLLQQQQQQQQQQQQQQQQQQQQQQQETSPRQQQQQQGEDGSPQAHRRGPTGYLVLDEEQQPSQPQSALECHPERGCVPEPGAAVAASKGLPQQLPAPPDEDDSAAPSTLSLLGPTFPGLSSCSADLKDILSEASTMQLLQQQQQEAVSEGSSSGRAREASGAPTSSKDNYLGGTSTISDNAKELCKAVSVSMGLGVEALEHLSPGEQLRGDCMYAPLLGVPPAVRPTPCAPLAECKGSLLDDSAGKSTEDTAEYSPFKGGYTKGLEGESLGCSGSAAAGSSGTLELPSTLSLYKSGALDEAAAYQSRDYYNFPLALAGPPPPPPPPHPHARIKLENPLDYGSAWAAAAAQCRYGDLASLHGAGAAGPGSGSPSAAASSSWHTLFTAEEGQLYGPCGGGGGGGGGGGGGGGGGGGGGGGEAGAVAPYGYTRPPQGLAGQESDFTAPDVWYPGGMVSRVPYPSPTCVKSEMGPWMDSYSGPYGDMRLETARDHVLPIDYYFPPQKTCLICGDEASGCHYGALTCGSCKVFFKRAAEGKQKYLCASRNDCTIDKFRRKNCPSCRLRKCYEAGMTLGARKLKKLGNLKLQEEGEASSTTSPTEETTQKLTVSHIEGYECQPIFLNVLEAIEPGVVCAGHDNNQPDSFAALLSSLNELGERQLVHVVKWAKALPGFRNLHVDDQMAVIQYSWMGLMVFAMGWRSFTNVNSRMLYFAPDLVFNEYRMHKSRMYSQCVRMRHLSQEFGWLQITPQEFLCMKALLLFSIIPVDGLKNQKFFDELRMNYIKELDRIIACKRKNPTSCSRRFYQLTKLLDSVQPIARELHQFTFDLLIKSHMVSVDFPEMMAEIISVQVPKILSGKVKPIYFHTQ

[1] = biological target: T3, glucocorticoid receptor (GR) (Homo sapiens, UniProt P04150); test: Steroid receptor transactivation, MMTV-CAT reporter in DU145 cells; assay type: cell-based; conditions: DU145, relative to AR
T3 construct: expressed in transfected cells; host or cells: DU145
T3 sequence (P04150 1-777): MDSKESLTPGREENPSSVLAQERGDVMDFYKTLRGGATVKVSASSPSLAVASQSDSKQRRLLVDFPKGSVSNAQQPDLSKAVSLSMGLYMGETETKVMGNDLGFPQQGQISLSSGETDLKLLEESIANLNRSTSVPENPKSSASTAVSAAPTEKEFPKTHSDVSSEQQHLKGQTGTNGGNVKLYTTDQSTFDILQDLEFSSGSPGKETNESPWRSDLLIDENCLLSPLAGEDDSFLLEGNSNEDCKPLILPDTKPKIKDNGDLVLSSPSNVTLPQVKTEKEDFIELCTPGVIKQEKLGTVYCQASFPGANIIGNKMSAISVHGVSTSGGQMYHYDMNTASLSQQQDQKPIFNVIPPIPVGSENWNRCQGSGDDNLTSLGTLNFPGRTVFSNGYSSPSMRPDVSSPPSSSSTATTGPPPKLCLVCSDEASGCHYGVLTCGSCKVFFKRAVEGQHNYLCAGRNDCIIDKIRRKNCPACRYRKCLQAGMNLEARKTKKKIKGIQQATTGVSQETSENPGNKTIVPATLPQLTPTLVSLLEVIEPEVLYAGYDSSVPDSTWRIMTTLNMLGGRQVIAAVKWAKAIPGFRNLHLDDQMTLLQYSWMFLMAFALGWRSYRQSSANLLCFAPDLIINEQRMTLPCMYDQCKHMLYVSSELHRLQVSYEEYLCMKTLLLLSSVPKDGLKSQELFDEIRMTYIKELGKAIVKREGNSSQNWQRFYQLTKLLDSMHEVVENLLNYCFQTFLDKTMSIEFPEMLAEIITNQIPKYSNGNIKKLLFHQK

mARt877s = test: AR transactivation, transient transfection CAT reporter assay, mutant AR; assay type: cell-based, human; conditions: mARt877s, DHT 10^-11 to 10^-8 M
mARe708k = biological target: T4, mARe708k (Homo sapiens, UniProt P10275, E710K); test: as above; assay type: cell-based; conditions: mARe708k, DHT 10^-11 to 10^-8 M
T4 construct: expressed in transfected cells; host or cells: DU145
T4 sequence (P10275 1-920 E710K): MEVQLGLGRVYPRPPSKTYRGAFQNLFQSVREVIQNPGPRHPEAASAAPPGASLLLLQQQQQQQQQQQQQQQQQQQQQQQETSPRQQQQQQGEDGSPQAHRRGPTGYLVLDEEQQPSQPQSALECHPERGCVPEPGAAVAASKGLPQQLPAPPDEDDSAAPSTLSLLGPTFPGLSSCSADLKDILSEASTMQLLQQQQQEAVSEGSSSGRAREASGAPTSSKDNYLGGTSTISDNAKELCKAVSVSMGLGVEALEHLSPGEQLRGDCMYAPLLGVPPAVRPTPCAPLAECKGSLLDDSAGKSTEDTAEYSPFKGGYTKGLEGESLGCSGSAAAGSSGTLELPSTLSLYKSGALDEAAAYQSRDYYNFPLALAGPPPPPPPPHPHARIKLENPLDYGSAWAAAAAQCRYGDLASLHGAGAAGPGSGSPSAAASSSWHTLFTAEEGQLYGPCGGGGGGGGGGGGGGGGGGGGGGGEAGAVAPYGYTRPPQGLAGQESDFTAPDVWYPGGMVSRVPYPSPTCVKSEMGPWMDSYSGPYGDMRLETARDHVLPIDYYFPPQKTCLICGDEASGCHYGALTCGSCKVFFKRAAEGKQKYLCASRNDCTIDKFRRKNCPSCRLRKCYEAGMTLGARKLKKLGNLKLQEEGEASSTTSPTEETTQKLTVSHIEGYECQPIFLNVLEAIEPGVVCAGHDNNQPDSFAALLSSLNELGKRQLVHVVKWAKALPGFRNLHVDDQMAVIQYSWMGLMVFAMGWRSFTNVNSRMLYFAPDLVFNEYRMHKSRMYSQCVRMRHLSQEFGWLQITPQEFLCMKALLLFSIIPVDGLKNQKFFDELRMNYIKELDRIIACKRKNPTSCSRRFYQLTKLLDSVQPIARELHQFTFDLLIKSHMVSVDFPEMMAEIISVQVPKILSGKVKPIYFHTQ

- AR transcriptional activity induction with ARA55 cotransfected (wtAR; 10 nM DHT plus ARA55, DU145): 22.8 fold
- further increase of the DHT induction of AR transcriptional activity by ARA55 (wtAR; 10 nM DHT, dose-dependent, plateau at AR:ARA55 1:4.5, DU145): 5.3 fold
- enhancement of transactivation by ARA55 (wtAR; wtAR, DHT 10^-11 to 10^-8 M): 4–8 fold
- increase of AR transcriptional activity on transfection with exogenous ARA55 (AR): 4 fold
- enhancement of GR transcriptional activation by ARA55 [1]: to a lesser degree
- enhancement of transactivation by ARA55 (mARe708k): 4–8 fold
B1: ARA55: androgen receptor coactivator, 444 aa, SEQ ID NO:4, 91% homology with mouse hic5 (protein)
chain: MPRSGAPKERPAEPLTPPPSYGHQPTGQSGESSGASGDKDHLYSTVCKPRSPKPAAPAAPPFSSSSGVLGTGLCELDRLLQELNATQFNITDEIMSQFPSSKVASGEQKEDQSEDKKRPSLPSSPSPGLPKASATSATLELDRLMASLPDFRVQNHLPASGPTQPPVVSSTNEGSPSPPEPTAKGSLDTMLGLLQSDLSRRGVPTQAKGLCGSCNKPIAGQVVTALGRAWHPEHFVCGGCSTALGGSSFFEKDGAPFCPECYFERFSPRCGFCNQPIRHKMVTALGTHWHPEHFCCVSCGEPFGDEGFHEREGRPYCRRDFLQLFAPRCQGCQGPILDNYISALSLLWHPDCFVCRECFAPFSGGSFFEHEGRPLCENHFHARRGSLCPTCGLPVTGRCVSALGRRFHPDHFACTFCLRPLTKGSFQERAGKPYCQPCFLKLFG
modifications: Homo sapien
- enhancement of transactivation by ARA55 (mARt877s): 4–8 fold
